Values of other authors in article PMC8199105.

Biological target: Albumin (UniProt P02768)
Assay: surface plasmon resonance

In the case of Cubilin (from UniProt O70244), the Kd is listed as 630 nM.
